Experiment [1] concerns the target T1, human FcγRIIb extracellular domain, His-tagged (human, UniProt P31994 43-217).
T1 construct: also called human FcgRIIb; not shown: His-tag added to the C-terminus
T1 sequence: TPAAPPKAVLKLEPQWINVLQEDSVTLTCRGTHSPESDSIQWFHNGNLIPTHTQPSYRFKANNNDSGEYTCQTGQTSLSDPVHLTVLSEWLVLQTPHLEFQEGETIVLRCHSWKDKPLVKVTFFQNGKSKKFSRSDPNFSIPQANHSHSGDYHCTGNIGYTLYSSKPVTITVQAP
As to the kind of experiment: SPR (BIACORE), antibody captured on chip, soluble FcgR as analyte, 25 C. As for the experimental part:
(§1) The kinetic analysis of interactions between these antibodies and FcγR was carried out using BIACORE® T200 or BIACORE® 4000 (GE Healthcare). HBS-EP+ (GE Healthcare) was used as the running buffer, and the measurement temperature was set to 25° C. […] After the measurement, the antibody captured on the chip was washed off by allowing reaction with 10 mM glycine-HCl, pH1.5 and 25 mM NaOH so that the chip was regenerated and used repeatedly. The sensorgrams obtained as measurement results were analyzed by the 1:1 Langmuir binding model using the BIACORE® Evaluation Software to calculate the binding rate constant ka (L/mol/s) and dissociation rate constant kd (1/s), and the dissociation constant KD (mol/L) was calculated from these values. […] Regarding such interactions, KD values were calculated using the following 1:1 binding model described in BIACORE® T100 Software Handbook BR1006-48 Edition AE.

For experiment [2], the target named is T2, cynomolgus monkey FcγRIIIaS extracellular domain, His-tagged (cynomolgus monkey, UniProt A3RFZ7 21-206 (rhesus entry)).
T2 construct: also called cyno FcgRIIIaS; cynoFcγRIIIaS; not shown: His-tag added to the C-terminus
T2 sequence (A3RFZ7 21-206): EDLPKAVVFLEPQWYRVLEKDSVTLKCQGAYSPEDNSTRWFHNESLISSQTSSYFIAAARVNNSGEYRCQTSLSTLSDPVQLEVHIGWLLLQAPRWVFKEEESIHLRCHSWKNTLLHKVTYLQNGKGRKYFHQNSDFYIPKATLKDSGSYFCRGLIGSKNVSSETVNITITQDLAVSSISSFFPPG
Described as above. On the procedure: as §1

The target of experiment [3] is T3, cynomolgus monkey FcγRIIa3 extracellular domain, His-tagged (cynomolgus monkey).
T3 construct: also called cyno FcgRIIa3; cynoFcγRIIa3; not shown: His-tag added to the C-terminus
T3 chain: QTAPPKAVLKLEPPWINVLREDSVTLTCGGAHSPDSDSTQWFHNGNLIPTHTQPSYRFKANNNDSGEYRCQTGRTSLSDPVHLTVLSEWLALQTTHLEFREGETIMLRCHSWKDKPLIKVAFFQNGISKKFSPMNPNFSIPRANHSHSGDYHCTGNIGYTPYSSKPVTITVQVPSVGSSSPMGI
Described as above. As for the experimental part:
as §1

Experiment [4] deals with T4, human FcγRIIaR extracellular domain with C-terminal His-tag (human, UniProt P12318 34-217).
T4 construct: also called human FcgRIIaR; FcγRIIa (type R)
T4 chain: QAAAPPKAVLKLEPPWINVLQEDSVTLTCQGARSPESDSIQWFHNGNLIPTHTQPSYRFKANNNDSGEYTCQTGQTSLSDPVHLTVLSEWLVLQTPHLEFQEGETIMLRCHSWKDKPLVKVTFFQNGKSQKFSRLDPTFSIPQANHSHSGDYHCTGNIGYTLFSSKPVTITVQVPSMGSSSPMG
In words: SPR (Biacore), KD of SG1 / KD of variant. On the technique in general: SPR reads the build-up and loss of mass on a sensor chip optically.

In experiment [5] the target is T5, human FcγRIIb extracellular domain with C-terminal His-tag (human, UniProt P31994 43-217).
T5 construct: also called human FcgRIIb
T5 sequence: T1 sequence
In words: SPR (Biacore), KD of SG1 / KD of variant.

Experiment [6] addresses T6, cynomolgus monkey FcγRIIa3 extracellular domain with C-terminal His-tag (cynomolgus monkey).
T6 construct: also called cyno FcgRIIa3; cynoFcγRIIa3
T6 chain: T3 chain
As to the kind of experiment: SPR (Biacore), KD of SG1 / KD of variant.

Experiment [7] concerns the target T7, cynomolgus monkey FcγRIIa2 extracellular domain with C-terminal His-tag (cynomolgus monkey).
T7 construct: also called cyno FcgRIIa2; cynoFcγRIIa2
T7 chain: T3 chain with I127K, K130N, P133H, R142Q
In words: SPR (Biacore), KD of SG1 / KD of variant.

For experiment [8], the target named is T5, human FcγRIIb extracellular domain with …. As to the kind of experiment: SPR (Biacore), antibody captured, FcgR analyte.
Experiment [9] concerns the target T8, human FcγRIIIaV extracellular domain with C-terminal His-tag (human, UniProt P08637 17-208).
T8 construct: also called human FcgRIIIaV
In words: SPR (Biacore), antibody captured, FcgR analyte.

Experiment [10] deals with T9, human FcγRIIaH extracellular domain with C-terminal His-tag (human, UniProt P12318 34-217).
T9 construct: also called human FcgRIIaH; FcγRIIa (type H)
T9 sequence: T4 chain with R134H
As to the kind of experiment: SPR (Biacore), antibody captured, FcgR analyte.

Experiment [11] has as its target T10, cynomolgus monkey FcγRIIa1 extracellular domain with C-terminal His-tag (cynomolgus monkey).
T10 construct: also called cyno FcgRIIa1; cynoFcγRIIa1
T10 chain: T3 chain with T95P, A121T, S128A, P133H, N135D
As to the kind of experiment: SPR (Biacore), antibody captured, FcgR analyte.

For experiment [12], the target named is T4, human FcγRIIaR extracellular domain …. As to the kind of experiment: SPR (Biacore), antibody captured, FcgR analyte.
In experiment [13] the target is T11, cynomolgus monkey FcγRIIb extracellular domain with C-terminal His-tag (cynomolgus monkey).
T11 construct: also called cyno FcgRIIb; cynoFcγRIIb
T11 chain: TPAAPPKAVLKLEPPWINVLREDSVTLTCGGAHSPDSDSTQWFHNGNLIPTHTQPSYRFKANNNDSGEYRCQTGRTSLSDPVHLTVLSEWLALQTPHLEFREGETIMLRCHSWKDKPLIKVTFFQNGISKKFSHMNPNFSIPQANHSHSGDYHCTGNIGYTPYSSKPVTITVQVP
As to the kind of experiment: SPR (Biacore), KD of SG1 / KD of variant.

Experiment [14] deals with T8, human FcγRIIIaV extracellular domain …. In words: SPR (Biacore), KD of SG1 / KD of variant.
The target of experiment [15] is T9, human FcγRIIaH extracellular domain …. In words: SPR (Biacore), KD of SG1 / KD of variant.
Experiment [16] has as its target T6, cynomolgus monkey FcγRIIa3 …. As to the kind of experiment: SPR (Biacore), antibody captured, FcgR analyte.
The target in experiment [17] is T7, cynomolgus monkey FcγRIIa2 …. In words: SPR (Biacore), antibody captured, FcgR analyte.

As a reminder, the Kd is the concentration at which binding is half-saturated.

Substitutions are numbered along the chain they refer to.

T8 sequence (P08637 17-208 F176V): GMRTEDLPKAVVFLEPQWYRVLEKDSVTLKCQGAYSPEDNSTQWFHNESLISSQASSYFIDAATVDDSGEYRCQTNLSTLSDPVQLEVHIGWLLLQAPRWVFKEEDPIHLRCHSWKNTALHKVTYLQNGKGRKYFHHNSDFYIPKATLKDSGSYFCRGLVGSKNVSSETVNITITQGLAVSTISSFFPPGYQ

B1: M103205H795-MY261/M103202L889-SK1 (antibody, human IgG1, kappa, name in EU numbering)
heavy: QVTLKESGPVLVKPTETLTLTCTVSGIDLSHDDISWVRQAPGKGLEWVGIISYAGSTYYASWAKGRLTISKDTSKNQVVLTMTNMDPVDTATYYCARGVPAYSHGGDLWGQGTLVTVSSASTKGPSVFPLAPSSKSTSGGTAALGCLVKDYFPEPVTVSWNSGALTSGVHTFPAVLQSSGLYSLSSVVTVPSSSLGTQTYICNVNHKPSNTKVDKKVEPKSCDKTHTCPPCPAPELLHGPSVFLFPPKPKDTLMISRTPEVTCVVVDVSDEDPEVKFNWYVDGVEVHNAKTKPREEQYNSTYRVVSVLTVLHQDWLNGKEYKCKVSNKALPKPIEKTISKAKGQPREPQVYTLPPSREEMTKNQVSLTCLVKGFYPSDIAVEWESNGQPENNYKTTPPVLDSDGSFFLYSKLTVDKSRWQQGNVFSCSVMHEALHNHYTQKSLSLSP
light: DIVMTQSPATLSLSPGERATLSCTSSQSVYHANWLSWFQQKPGQPPKLLIYWASTLAYGVPSRFSGSGSGTDFTLTISSLQPEDAATYYCAGGYGGGRYAFGQGTKVEIKRTVAAPSVFIFPPSDEQLKSGTASVVCLLNNFYPREAKVQWKVDNALQSGNSQESVTEQDSKDSTYSLSSTLTLSKADYEKHKVYACEVTHQGLSSPVTKSFNRGEC
notes: Asn at EU 236 of MY201 replaced with His
B1: the Kd in experiment [1] is 53 nM; in experiment [2] it was 2400 nM; in [3] it was 55000 nM.

B2: M103205H795-MY471/M103202L889-SK1 (antibody)
chain 1: B1 heavy with A233R, H238T
chain 2: B1 light
Regarding B2, the “KD fold (SG1 = 1)” value in [4] was determined as 2.3 fold; in [5], 1.6 fold; in [6], 3.5 fold.

B3: M103205H795-MY463/M103202L889-SK1 (antibody)
chain 1: B1 heavy with A233H, H238T
chain 2: B1 light
On to B3, for which, in experiment [7], the “KD fold (SG1 = 1)” value came out at 2.8 fold. The results for the Kd in experiment [8] and in experiment [9] were 2300 nM and 4800 nM, respectively.

B4: M103205H795-MY470/M103202L889-SK1 (antibody)
chain 1: B1 heavy with A233Q, H238T
chain 2: B1 light
As to B4, the “KD fold (SG1 = 1)” value in [4] amounted to 2.3 fold. In addition, the Kd in experiment [8] was 2300 nM.

B5: M103205H795-MY474/M103202L889-SK1 (antibody)
heavy: B1 heavy with A233V, H238T
light: B1 light
notes: Substitutions in EU numbering on SG1
Turning to B5, the “KD fold (SG1 = 1)” value in experiment [5] turned out to be 2.9 fold. Moreover, binding in experiment [10] was characterised by a dissociation constant (Kd) of 130 nM.

B6: M103205H795-MY453/M103202L889-SK1 (antibody, human IgG1, kappa)
heavy: B1 heavy with P234R, H238T
light: B1 light
notes: as for B5
On to B6, for which the results for the Kd in [11], in [12] and in [9] were 6200 nM, 16 nM and 1400 nM, respectively.

B7: M103205H795-MY461/M103202L889-SK1 (antibody)
heavy: B1 heavy with A233F, H238T
light: B1 light
notes: as for B5
B7: the “KD fold (SG1 = 1)” value in experiment [13] stood at 3.6 fold; in [14], 0.2 fold; in experiment [7], 2.8 fold; in experiment [15], 3.6 fold. For the same molecule, the Kd in experiment [11] is 1800 nM; in experiment [10], 180 nM; in experiment [16], 3500 nM.

B8: M103205H795-MY455/M103202L889-SK1 (antibody, human IgG1, kappa)
heavy: B1 heavy with P234T, H238T
light: B1 light
notes: as for B5
For the molecule B8, in [17], the Kd was determined as 2900 nM.

B9: M103205H795-MY462/M103202L889-SK1 (antibody)
heavy: B1 heavy with A233G, H238T
light: B1 light
notes: as for B5
As for B9, the “KD fold (SG1 = 1)” value in [13] worked out at 3.6 fold; in experiment [14], 0.2 fold. The molecule also came in with a Kd in experiment [17] of 1800 nM.

These data come from patent US20250076311A1 (Chugai, published 2025).
